The target in test [1] is receiver domain of ARABIDOPSIS … KINASE 5 (AHK5RD), labelled with Alexa Fluor-488 (Arabidopsis thaliana) (UniProt Q3S4A7). Kind of test: MST.
Test [2] has as its target T1, ETR1 fragment comprising both HK and RD domain (ETR1HK-RD) (Arabidopsis thaliana, UniProt P49333 324-738).
T1 sequence (looked up): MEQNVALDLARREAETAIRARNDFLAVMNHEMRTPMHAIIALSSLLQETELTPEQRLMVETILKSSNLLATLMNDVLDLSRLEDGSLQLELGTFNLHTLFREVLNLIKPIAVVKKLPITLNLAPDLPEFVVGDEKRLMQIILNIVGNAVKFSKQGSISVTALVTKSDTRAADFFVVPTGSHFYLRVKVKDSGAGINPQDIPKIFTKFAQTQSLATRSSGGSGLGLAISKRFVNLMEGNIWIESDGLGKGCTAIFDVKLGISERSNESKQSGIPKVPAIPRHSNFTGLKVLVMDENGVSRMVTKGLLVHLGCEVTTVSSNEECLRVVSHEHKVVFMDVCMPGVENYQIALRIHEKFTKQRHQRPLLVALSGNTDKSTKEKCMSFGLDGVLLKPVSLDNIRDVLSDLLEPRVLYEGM
Briefly: MST.

This is an account of results in publication doi:10.1101/2021.09.16.460643 (bioRxiv, 2021).

With “histidine kinase domain of ETHYLENE RESPONSE 1 (ETR1HK) (domain or fragment)”, in test [1], the Kd stood at 166 µM.

B1: receiver domain of ARABIDOPSIS … KINASE 5 (AHK5RD), labelled with Alexa Fluor-488 (domain or fragment, Arabidopsis thaliana)
chain: ETSKPKILLVEDNKINIMVAKSMMKQLGHTMDIANNGVEAITAINSSSYDLVLMDVCMPVLDGLKATRLIRSYEETGNWNAAIEAGVDISTSENEQVCMRPTNRLPIIAMTANTLAESSEECYANGMDSFISKPVTLQKLRECLQQYLH
modifications: Alexa Fluor-488 label (site not stated; printed as Alexa-Fluor 484 in the anisotropy methods)
In turn, B1 had a Kd in test [2] of 167 ± 50 µM.

Usually Kd stands for the constant that tells how readily two partners part at equilibrium. Low values mean tighter binding, high ones weaker binding.
